Experimental data reported in US20160185837A1 (Medimmune Limited, priority 2013, published 2016).

Columns and labels:
[1] = molecular target: T1, mouse GLP-1 receptor (mGLP-1r) (Mus musculus, UniProt O35659); assay: BSA-cAMP assay, cells expressing mouse GLP-1 receptor; format: cell-based
T1 construct: expressed in transfected cells; host or cells: HEK293s or CHO cells
T1 sequence (O35659 22-463): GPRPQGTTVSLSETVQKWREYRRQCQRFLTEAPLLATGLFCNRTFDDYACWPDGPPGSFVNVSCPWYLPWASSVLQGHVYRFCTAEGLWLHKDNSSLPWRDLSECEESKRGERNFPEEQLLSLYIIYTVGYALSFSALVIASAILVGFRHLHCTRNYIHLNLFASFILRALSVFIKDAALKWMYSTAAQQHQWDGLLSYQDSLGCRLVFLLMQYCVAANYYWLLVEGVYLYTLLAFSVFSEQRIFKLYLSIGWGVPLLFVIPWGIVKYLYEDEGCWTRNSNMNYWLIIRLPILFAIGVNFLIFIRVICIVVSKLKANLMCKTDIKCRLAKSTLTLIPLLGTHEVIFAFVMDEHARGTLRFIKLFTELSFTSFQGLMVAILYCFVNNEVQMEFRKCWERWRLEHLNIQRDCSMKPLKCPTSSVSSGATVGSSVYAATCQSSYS
Outline: (§1)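 EC50 is the midpoint of an unconstrained 4-parameter logistic fit to HTRF cAMP data, expressed as percent of maximal native agonist response, from two separate occasions. Rodent (mouse, rat) GLP-1R- or GIPR-expressing cells were incubated with compound 30 min at room temperature in 0.1% BSA medium, in duplicate.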

[2] = molecular target: T2, mouse GIP receptor (mGIPr) (Mus musculus, UniProt Q0P543); assay: BSA-cAMP assay, cells expressing mouse GIP receptor; format: cell-based
T2 construct: expressed in transfected cells; host or cells: HEK293s or CHO cells
T2 sequence (Q0P543 19-460): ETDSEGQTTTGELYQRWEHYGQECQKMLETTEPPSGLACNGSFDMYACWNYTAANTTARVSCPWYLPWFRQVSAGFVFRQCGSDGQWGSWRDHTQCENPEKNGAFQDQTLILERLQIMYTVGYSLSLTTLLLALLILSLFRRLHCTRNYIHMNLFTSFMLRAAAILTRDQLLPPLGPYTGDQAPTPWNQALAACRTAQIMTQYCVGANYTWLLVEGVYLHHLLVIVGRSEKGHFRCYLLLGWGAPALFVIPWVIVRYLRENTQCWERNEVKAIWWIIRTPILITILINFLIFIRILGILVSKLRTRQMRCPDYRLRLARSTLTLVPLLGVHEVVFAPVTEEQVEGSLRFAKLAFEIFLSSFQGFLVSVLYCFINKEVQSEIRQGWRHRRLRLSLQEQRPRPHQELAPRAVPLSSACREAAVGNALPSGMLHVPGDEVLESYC
Outline: as §1

[3] = molecular target: T3, human glucagon receptor (GCGr) (Homo sapiens, UniProt P47871); assay: BSA-cAMP assay, cells expressing human glucagon receptor; format: cell-based; details: Batch 1, read-out: hGCGr cAMP activity EC50
T3 construct: expressed in transfected cells; host or cells: HEK293s or CHO cells
T3 sequence (P47871 26-477): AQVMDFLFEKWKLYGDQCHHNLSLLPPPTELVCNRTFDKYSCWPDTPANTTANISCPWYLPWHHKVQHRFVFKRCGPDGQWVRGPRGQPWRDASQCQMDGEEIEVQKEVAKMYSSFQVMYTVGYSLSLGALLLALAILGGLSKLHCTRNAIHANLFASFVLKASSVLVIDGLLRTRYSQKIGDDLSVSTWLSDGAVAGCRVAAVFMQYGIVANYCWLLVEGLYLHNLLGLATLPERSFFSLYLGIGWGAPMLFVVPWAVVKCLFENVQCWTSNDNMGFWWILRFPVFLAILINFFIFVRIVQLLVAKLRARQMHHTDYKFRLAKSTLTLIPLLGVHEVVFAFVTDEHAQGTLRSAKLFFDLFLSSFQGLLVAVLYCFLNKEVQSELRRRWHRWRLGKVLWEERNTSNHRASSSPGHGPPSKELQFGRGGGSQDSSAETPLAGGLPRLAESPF

[4] = test system: blood glucose; assay: Oral glucose tolerance test (OGTT) in mouse model; format: in vivo, C57 male mice
Experimental: The effect of IP088 on glycemic control in a mouse model was carried out as follows. Twenty-one (21) male C57 male mice (11-12 weeks old) were purchased from Taconic, Denmark and acclimatized for 3 weeks before experimentation. Throughout the acclimatization period the animals are offered ad libitum chow and tap water. Mice were single housed one week prior to the study. On day 1 of the study animals were randomized into 4 groups based on body weight (n=5-6 per group), and were administered the following compounds subcutaneously four hours (IP088, IP040, and GLP1a-Fc) or two hours (liraglutide) prior to each oral glucose tolerance test:
Group 6: Liraglutide (GLP-1 analog, Novo Nordisk) 0.2 mg/kg S.C.
Group 7: GLP1a-Fc (GLP-1 agonist) 1 mg/kg S.C.
Group 8: IP088 1 mg/kg S.C.
Oral glucose tolerance tests (OGTT) were performed on days 0 and 2, both after a 4-hour fast. […] Blood glucose was measured from tail vein blood before glucose (at t=−240, −120 and 0 min, baseline) and after glucose administration at t=15, 30, 60 and 120 min. Blood samples (tail vein) were collected into […] heparinized glass capillary tubes and immediately suspended in buffer (0.5 ml of glucose/lactate system solution (EKF-diagnostics, Germany) and analyzed for glucose on the test day using a BIOSEN c-Line glucose meter (EKF-diagnostics, Germany) according to manufacturer's instructions.

[5] = PK by Fc Detection
Experimental: Table printed on a drawing sheet, FIG. 3A-C
Title: PK by Fc Detection
Circles: IV injection of 1 mg/kg, squares: subcutaneous injection of 1 mg/kg. Pharmacokinetic parameters Cmax, bioavailability (F %) and half-life T1/2 are compared in panel C.
Circles: IV injection of 1 mg/kg, squares: subcutaneous injection of 1 mg/kg. Pharmacokinetic parameters Cmax, bioavailability (F %) and half life T112 are compared in panel F.
First reader's note: Panel C of FIG. 3A-C; the title 'PK by Fc Detection' is printed over the whole sheet, including plot panels A and B.

B1: IP367 (protein)
chain: YSEGTFTSDYRILKERQAIDEFIAWLLKGGAAAGGSGSTASSGSGSATGGGGAATHTCPPC
B1 showed an EC50 ([1]; Batch 1, BSA-cAMP assay, read-out: mGLP1r cAMP activity EC50) of 390 nM, an EC50 ([2]; Batch 1, BSA-cAMP assay, read-out: mGIPr cAMP activity EC50) of 0.031 nM and an EC50 [3] greater than 1300 nM.

B2: IP088: Fc fusion, IgG1-TM, SEQ ID NO:105; agonist peptide YSEGTFTSDYSKLLEEEAVRLFIEWLVKGP (SEQ ID NO:15) (protein)
chain: YSEGTFTSDYSKLLEEEAVRLFIEWLVKGPAAAGGSGSTASSGSGSATGGGGAATHTCPPCPAPEF
modifications: also: Fc fusion, IgG1-TM
In the case of B2, the “potency for GLP-1r, in words” value ([1]; mouse receptor) is reported as “high potency”, the “potency for GIPr, in words” value ([2]; mouse receptor) is reported as “relatively lower potency” and the “glycemic control in OGTT compared with GLP1a-Fc, in words” value ([4]; 1 mg/kg S.C. each, OGTT days 0 and 2) is reported as “superior to GLP1a-Fc at glycemic control”. The “glucose lowering effect in OGTT, in words” value ([4]; 1 mg/kg S.C. four hours before OGTT, days 0 and 2, 2 g/kg oral glucose) was “excellent glucose lowering effects”, the “Cmax” value [5] was 9800 ng/mL and the “F (%)” value [5] was 67%. For the same molecule, the “t½” value [5] was 71 h.
